# Experimental data: a protein production outcome set (Wang et al. 2014)
# Assay: label from the status in PepcDB records
row,Sequence,protein production
1,MMDSTASRQDLLTAASMRFQNLIQWSGAVLLCALPLGVTLAATGGEPAAVTQVDIAPCLAAAAGDDMDKAKSACADVIDNEKTAKGDLIKALVARGALYARHDQVDRAIADDSRALSLDPTLADVFNARGELWLKKGDKPKAVQDFGAALKLDPNHEKAKANHKAMARELERIGAQMAVAGKPSFNCARAARAVEKAICGNRELADLDREIYGSHLRVIREAQSPAEARKIQREQDDFIARRNSGFGRPGYDLKKAMQDRLQQINGVDGY,failed
2,MCDFISHNKQLFDELDIFIDSLATKEGALIQVLHEAQGIFGYLPKEVQLHVARKLGVAPAKVYGVVTFYSYFTTEPVGKYKISVCLGTVCFVKGADKILSAFEKQLGIKVGETTSDFKFSLEGLRCLGACGLAPVVTVNGKVYGKVKPDQVSEILDTYRELELNC,failed
3,MGFLHKLWDETVAGPTPDNGLGKLRKHDSLSTVRSSPPSLSSDQVTRSIMVTKGNNNVRGLRKLKMDPDSPTCSSSNPGTPLTPGTPCYALGPFTAGKIPSSGEDDAASLTTYEWIVINALDR,failed
4,SIVLSDPDTVADYLRFHLGQEKVEVSVALLLNRQNQLIAVRELSRGTVAENTIYIREIVKLALDEYADSLIIAHNHPGGSPEPSQEDIMFTRRLAQAMSLVDVSLLDHFIVTSQSVCSFRQLGLMP,not failed
5,MRTGRSPPTPSTRCAVALVCSWSLIRVVRLSMARRSRCRLGMPSGVPGRCRRFSMTLTSLSGSTWNTRLLTAPISVRSCCTQPSWVVSRGLLVCLPSITPVLSRYGSLRSRCAWCRWLRPLTTTSPGSQRCWVPAGFGSRRTCPRTGLARRSATPLRTRCLSSSSRAVRMPRLVPYPSGCVMALRSMASSWTRQCVSLQLGTVGTATTIRLPRRCAESLMTEDYRLEFAEELVGVPDPFRRFWTPYRMAYISGENKPRGNRPEDGCPFCRAPQRSDEDALIVHRGEHCYVIMNLYPYGPGHMLVCPYRHVAGYVDATQDEVVEMAELTQDAIRTLQEVSRPQGFNVGINQGASGGAGVAAHLHQHVIPRWTGDTNFLPIVAGVRAVPQLLGDGRQMLADAWVGHA,failed
6,MPSTLQGTFHTYRIIRRLGQGAFGEVSLAGVLETGEVVALKRIHIRNTGGIPDVVVREIKALQSVSHPNVVALLDVFPKGQAIYLVQEYCTTDLAALLRRLPAPPPERIAKGLMLQLCRGLEALHAEGIMHRDVKPSNTLLSAASGTAKLADCGLARPLDGGERPAYTHAVATRWYRAPELLYGARAYGPAVDVWALGLVFAELLGLSPLVPGDNDIDQLGRVIATFGSMEPVWLGVRALPDWGKIAFPHCEPLPLGDLLPGAPAAALEFLAAFLRYDPAKRITAACAVRSTYLTATQPL,failed
7,MKHKGLIRSYEMEFAFLYRLSDLAVIVTFMLLLVLKDTNTSMDKDYVILSFVGGISFLFMAESGNLYRSWRTSSFREQMFIVCMSWLMTSALLFMVLYFSEVYPLFDRSILALWVTITPALLLAWRVTFRTVLAYLRKMGFNTRTAIIIGQTPHGITLANEIQNHTEHGVLFDGFYDERSSDRLPSSEYPIKGAVNQALERAKRGEVDYVYIAMPMHAKERIASILNQFSDTTANTYLIPDFFTYNLLHSRWDQIGQVQTLSVFDTPFAGVSSWIKRFEDILCSSIILVLISPILLAIAIGIKLTSKGPVIFKQHRYGLDGRKIEVWKFRSMTTMDQGPNIKQATKNDPRITPFGSFLRRTSLDELPQFINVLQGTMSIVGPRPHAVAHNEEYRQIVARYMLRHKVKPGITGWAQINGYRGETDTLDKMEKRVEFDLDYIHHWSVWMDIKIIFLTVFKGFTGSNAY,failed
8,MTHATSTETIHYVNEDGDQVFEDGGGKLDFTRTVTIDDVTNEVVEYGEWTPVTDDEFAAVTSPDKDGYTPDTSEVAAQKPDMTDGPDGTVKDVEVTVTYTANPAVATITYVDDDENGKLEHHHHHH,failed
9,MSTQTSIEWTEMTWNPIVGCTKVSPGCKHCYAENMAHRLQAMGTPGYENGFKLSLRPEKLREPLQRKKPTIYFVNSMSDLFHEKVPDHYIDQVFEVIREATQHTFQILTKRAERLADYFSKRTPPTNAWLGVSVEDKAYGVPRIDCLRRVNATIRFLSAEPLLEDLGEIDLTDIHWVIVGGESGNKARPMQQEWVDNIHRQCDVSGSAFFFKQWGGWGADGVKRSKKANGRLLNGQTWDEIPLLNLALEHHHHHH,failed
10,MPADIIIHNGSLITFDEARPQAQALAIQGGMIAAVGSDAEILALAGPETRLIDAGGGTVLPGFIDSHVHLFGGSVELDCLSLYGVKGLDAMRAAIQPYAQANPDDALVFCVMADYDILGTGHTLTRHDLDSILADRPLAMFAPDHHTVWANTAALEATGLLQGGEVDAGSLIVLGEDGLANGELLEPGAYGPILGLTRHGGREMLGLTTGKDPEPPATPDQRARDKDVIARGLAHCAAQGITGLHLMDGNRYQLELLTELEAEGRLLCRCEVPFHMKGTDPVERMTAEAPAMRAAYRGDKVRCNHLKMFIDGVIESGTALMLRPYPGELGANDNTGDEVFTQEHFTACCVEADRLGFQIAVHAIGDAGVRRTIDAFEAARRANGTRDSRHRIEHIEVIHPDDIPRLAELDIVASLQPGHAPRGHVFPPGAVGQYLHPDQIVGAYAWQTIRETGARVVFSTDWPVIPVDVMPSLRAAIAPLDLGPDWPDQSQSLMDTLASYTRDNAWVEFNEDSKGRLKVGMAADIAVLSHDLTALAPDDITQAAAMVTIMDGAVTYQRPG,failed
11,RFLEDMTIGERREVGTFTFTADAIKTFAAQFDPQPFHLDEEAGKNSLFGGLAASGWHVAAVCMKLMVADAQRESAEAAKRGELVATGGPSPGFRELRWLKPVLAGDTITYYKQVESLRPSDSRPQWGIMQARNTGINQRGEVVFSFLATAFVPRRPNA,failed
12,MPTTQLHHHYVLCGWHVRSALTLPELPPWSATATPVDADVVIEEGEVPDRLDLHDPVESWLSVGRDGSVLLQVPQVVRIHVHAGRAMRVQRLNRHDESWRLFLLGSALGYLCLQRSLFPLHAACLRIGTQTVAFAGHSGAGKSTLAAALLKRGHGLLSDDLTVIRLDSAGAIMVLPAFPRLKLWRDTLESLQLPVTDAPPVRPGMEKFDLRPSAGFDAAPVRLDAVVVLGDASEPHLQRLSPQHALPLLHGYLARPQAAVRMGLHAATFAHAAAIARQVPVWRLRRPRRFDALDITVDLIEAHVGALEHHHHHH,failed
13,MSNNGSSPLVLWYNQLGMKDVDRVGGKNASLGEMITNLSGMGVSVPNGFATTADAFNQFLDQSGVNQRIYELLDKTDIDDVTQLAKAGAQIRQWIIDTPFQPELENAIREAYAQLSADDENASFAVRSSATAEDMPDASFAGQQETFLNVQGFDAVLVAVKHVFASLFNDRAISYRVHQGYDHRGVALSAGVQRMVRSDLASSGVMFSIDTESGFDQVVFITSAWGLGEMVVQGAVNPDEFYVHKPTLAANRPAIVRRTMGSKKIRMVYAPTQEHGKQVKIEDVPQEQRDIFSLTNEEVQELAKQAVQIEKHYGHPMDIEWAKDGHTGKLFIVQARPETVRSRGQVMERYTLHSQGKIIAEGRAIGHRIGAGPVKVIHDISEMNRIEPGDVLVTDMTDPDWEPIMKKASAIVTNRGGRTCHAAIIARELGIPAVVGCGDATERMKDGENVTVSCAEGDTGYVYAELLEFSVKSSSVETMPDLPLKVMMNVGNPDRAFDFACLPNEGVGLARLEFIINRMIGVHPRALLEFDDQEPQLQNEIREMMKGFDSPREFYVGRLTEGIATLGAAFYPKRVIVRLSDFKSNEYANLVGGERYEPDEENPMLGFRGAGRYVSDSFRDCFALECEAVKRVRNDMGLTNVEIMIPFVRTVDQAKAVVEELARQGLKRGENGLKIIMMCEIPSNALLAEQFLEYFDGFSIGSNDMTQLALGLDRDSGVVSELFDERNDAVKALLSMAIRAAKKQGKYVGICGQGPSDHEDFAAWLMEEGIDSLSLNPDTVVQTWLSLAELKK,failed
14,MYALIHHGRRLVQLQKLSNFRVSVQNGSALSNSFSFASVADATLIDSLKGNNFTVSYLVDSLGLTTKLAESISKKVSFEERRNPDSVLSLLTSYGFTKSQISSIITIYPRLLALDAEKSIAPKLQSLQSRGASSSELTQIVSTVPKILGKRGHKSITVYYDFVKDIIEADKSSSYEKLCHSFPQGNKKNKIRNISVLRELGVAQRLLFPLLISDGQPVCGKERFEESLKKVVEMGFDPETTKFVEALRVIYRMSDKTIEEKVNVYKRLGFGVADVWAIFKKWPSFLSYSEKKITHTFETLKSCGLLKHEVLLLLKKHPKCICSSEQKIVNSIETFLGLGFSRDEFAMMVKRYPQCIDYTAETVKKKTEFIVKNMNWPLEALVSIPQVFGYSLEKRTVPRCNVIKTLISKGLMKDGSEAPPMSSVLTSTDQAFLRRYVMKHDKLAPELMAIFTGENGK,failed
15,PFCAMENQVLVIRIKIPNSGAVDWTVHSGPQLLFRDVLDVIGQVLPEATTTAFEYEDEDGDRITVRSDEEMKAMLSYYYSTVMEQQVNGQLIEPLQIFPR,not failed
16,MKKWFPALLFSLCVSGESSAWNNIVFYSLGDVNSYQGGNVVITQRPQFITSWRPGIATVTWNQCNGPEFADGFWAYYREYIAWVVFPKKVMTQNGYPLFIEVHNKGSWSEENTGDNDSYFFLKGYKWDERAFDAGNLCQKPGEITRLTEKFDDIIFKVALPADLPLGDYSVKIPYTSGMQRHFASYLGARFKIPYNVAKTLPRENEMLFLFKNIGGCRPSAQSLEIKHGDLSINSANNHYAAQTLSVSCDVPANIRFMLLRNTTPTYSHGKKFSVGLGHGWDSIVSVNGVDTGETTMRWYKAGTQNLTIGSRLYGESSKIQPGVLSGSATLLMILP,not failed
17,MINDALKPYLEEKIESAKKTVPSFALEELKQKIISSPIQFGKSDIDDLVANLLKRYEQTKENSLIGKIDSIFKEISDMEKVMSGKAAEPAQPAEKPKKKAKLEAIGDDVVSIMVSLRWLEFLLDNYGPENTLDVLDYYESLGWISSTVKEQMMKYAKMTGVMNPAQEYKIKPSIQDHIINMLFIEKLRGEEINRDLIEALEREFRTIRKGVDELYGI,failed
18,MRLLYVIKKENPMDQMPNCPKCQSEYVYHDSINFVCPDCGNEWDNNEIQESDDDQLIVKDSNGNLLAEGDNVLLIKDLKLKGSSEVLKKGTKFKNIRLVNGDHNVDCGKIMLKSEFLKKA,failed
19,DPGERLYDLNMPAYVKFNYMAEREDELSLIKGTKVIVMEKCSDGWWRGSYNGQVGWFPSNYVTEEGDSPLGDHVG,not failed
20,MPVRRPCPGRPYRDLSSAPGTAVRAEPTTPLPPFALRTCACQTPGRDMSVNALTAVPSARSIPATSAFRGRIGCDARSGHYPVPGRYRLHLSPSCPHCLKIAVAHSLLGLEDACPVTLLPAVPDGPGGEHSALRPLYEASAHRYAGAAVAPVLSDDWSGRIVSTHAPDIMRDLARRFGGERPPLYPKGMEAEIEAVGHLCEQGINATAQRAGRADADDAERDSALGSLLRTLRSLEGRLARQDYLLGDRLTAADIELWVSLVQLDTVHRWHLDASAVHRVADHPALWAYARRLAGDPAFGAHLDLDGIARRHHAHCRGLEAAGAAVQIVEWAAHAPDRTASRQG,failed
21,MSDHPFSIQANLYLQLRHFIRLGMSKAEAIKLITYNNAKILGIEDKLGSLEKGKWASLVVWNGDPFNLENYPTHVFAEGELIHEANLLEHHHHHH,failed
22,MKIIRNYLYNASYQVLILLTPLITVPYVARVLGPTGVGVYSYTNSIITYFVLIGTLGITVYGNQQIAFHRDDIIERSRTFWEIELLQAVNVGITFLGFGIFLILDHRYQLFMVFQSCQLLAGAFDVSWFFMGIEDFKKTVFRNTLVKIATLGAIFIFVRTQSDLGLYILILALSQLVGNFTLWPYLKTRLVRIKFKDLKIWHHYVPALMLFVPQAANLVYQQVNKTMLGNLDTVNSVAYFDYADKLIKTVLAVVTATGIVMLPHMANLHAKGKNETIKRYLYKSFEFVSMIALPLGFGIAGIATTLAPIYFGQDFSISGKLLIIEAPVILLIGWSNVIGQQYMMPTEQISKYTKSVIIGAIVNVILNVPLIMYLGAVGAPIATVAAELSVTLYQLFVVRKQIQINLLFSDFWKYLFSSTVMFIVVYGLNVSMPMSIINLIVQIVEGMIIYLGMLLVLQPKLVVEGKSLLLGKLHK,failed
